This test addresses T1, γ^S3C subunit of BF1 (Bacillus subtilis, UniProt P37810 1-287, S3C).
T1 construct: F1-ATPase γ subunit, Bacillus subtilis, with γSer3 to Cys; Stood in the assay as a subunit of the α3β3γ^S3C complex, never isolated alone; source: E. coli BL21(DE3), co-expressed with α and His6-β, purified as part of the α3β3γ^S3C complex
As to the kind of experiment: cross-linking; disulfide cross-linking without ATP: α3β3γ^S3C and ε^133C mixed 1:10, excess ε removed by ultrafiltration (100-kDa cutoff), 50 µM CuCl2, 1 h, 25 °C, 50 mM Tris-H2SO4 pH 7.5, 50 mM K2SO4; non-reducing SDS-PAGE. The following applies: both partners purified.

B1: mutant BF1 ε subunit (133C, a Cys introduced at the C-terminus) (natural protein, Bacillus subtilis, UniProt P37812 1-132, looked up)
chain: MKTVKVNIVTPDGPVYDADIEMVSVRAESGDLGILPGHIPTVAPLKIGAVRLKKDGQTEMVAVSGGFVEVRPDHVTILAQAAETAEGIDKERAEAARQRAQERLNSQSDDTDIRRAELALQRALNRLDVAGKC
For B1, the binding result is listed as “binds”.

Source of the values: publication PMC3742539, “ε Subunit of Bacillus subtilis F1-ATPase Relieves MgADP Inhibition” (PLoS ONE, 2013).
